To fix the notation:
B1: HDV Ribozyme (parent)
chain: GGCCGGCAUGGUCCCAGCCUCCUCGCUGGCGCCGGCUGGGCAACAUUCCGAGGGGACCGUCCCCUCGGUAAUGGCGAAUGGGACCCA

The variants in this data set derive from B1. Put plainly: self-cleavage, relative activity (ratio to wild type); higher = more cleavage; co-transcriptional.
Take G34C U60A: the self-cleavage amounted to 0.306. The same measure for G34C C57G: 0.0978; for G34A G80A: 0.0241; for G34C G54U: 0.123. Turning to G35A C61U, the self-cleavage worked out at 0.511. Turning to G34U A56U, the self-cleavage was determined as 0.18. The same measure for C36A C48G: 0.203; for G35C U60G: 0.353.

Take G35C C85A: the self-cleavage was 0.213. Take C36A G82A: the self-cleavage is 0.071. G34C C58A: the self-cleavage turned out to be 0.161. Next, G35C G50C: 0.0923. Next, G34C U37C: 0.156. Turning to G34C U37G, the self-cleavage was determined as 0. For G35A C41U, the self-cleavage came out at 0.524. As to G35A C41G, the self-cleavage came to 0.222.

C36G G53C: the self-cleavage amounted to 0.158. Next, G34U G76C: 0.0821; G34U G76A: 0.231; G35C C61G: 0.217. Consider G34C C84U, for which the self-cleavage is 0.217. With G34A G81A, the self-cleavage was 0.128. The same measure for G34U C36G: 0.0302. Consider G34A A78U, for which the self-cleavage was found to be 0.0489. Turning to G34U G81C, the self-cleavage came to 0.144.

With C33U U79A, the self-cleavage came to 0.684. The same measure for C36A U47A: 0.196; for G34C C85A: 0.249; for G34C C85G: 0.125. As for G35U U72C, the self-cleavage stood at 0.0811. On to C33U G54C, for which the self-cleavage was found to be 0.623.

Turning to C33U G54A, the self-cleavage came to 1.05.

Turning to C33U G54U, the self-cleavage turned out to be 0.901. As to G35A A56C, the self-cleavage is 0.346. The same measure for C36A G39C: 0.128; for G35U A45C: 0.0475. Next, G35U A45U: 0.289. Regarding C36A C57U, the self-cleavage came out at 0.102. Take G34C G39U: the self-cleavage came to 0.156. As for G35U A51C, the self-cleavage turned out to be 0.332. G34A G73A: the self-cleavage was determined as 0.128. The same measure for G34A G39C: 0.0707; for G34U C41U: 0.131; for G35A A45C: 0.0378.

For the variant G34A A56U, the self-cleavage was 0.256. Regarding G34A A56G, the self-cleavage worked out at 0.104. Next, C36A G76A: 0.266. The same measure for G34A C48G: 0.119.

G35U U47G: the self-cleavage came out at 0.295. In the case of G35A G74U, the self-cleavage stood at 0.231. For C36A C44A, the self-cleavage turned out to be 0.19. On to C36A C44U, for which the self-cleavage was 0.208.

Turning to G34A A77U, the self-cleavage stood at 0.0339. As for G35C G39C, the self-cleavage is 0.119. Next, G35C A56G: 0.128; G35C A56U: 0.232.

Turning to G35U C84A, the self-cleavage came out at 0.308. With G34A C75A, the self-cleavage came out at 0.107.

As for G34A A51C, the self-cleavage was found to be 0.193.

As for G34C C63U, the self-cleavage amounted to 0.287.

Take G35C G68U: the self-cleavage came out at 0.305. For the variant G35A C66U, the self-cleavage was determined as 0.655.

For C36A C61G, the self-cleavage stood at 0.269.

On to C36G A71U, for which the self-cleavage amounted to 0.095.

G35C A42C: the self-cleavage came out at 0.107.

As to G35C A42G, the self-cleavage was 0.192. Next, G34C U46G: 0.0504; C36G G67U: 0.0361. For the variant C36G G67A, the self-cleavage came out at 0.157. As for C36G G38U, the self-cleavage was found to be 0.199.

On to G34A U47G, for which the self-cleavage amounted to 0.0791.

In the case of G35A G76A, the self-cleavage was 0.709. As to G34U U79G, the self-cleavage was determined as 0.0978.

For C36G C41U, the self-cleavage came out at 0.199. For G34U C85U, the self-cleavage was determined as 0.164. Next, G35U G74U: 0.182. In the case of G35U G74A, the self-cleavage came out at 0.058. The same measure for G35C A87U: 0.208. Next, G34U G35U: 0.175; C36A C64U: 0.237; G34U G54A: 0.041. The same measure for G34U G54C: 0.0468; for G35C A70G: 0.208; for G35A U65G: 0.554. On to C36G G68A, for which the self-cleavage is 0.233. Turning to C36G G68C, the self-cleavage was determined as 0.17. As for G35U G55A, the self-cleavage turned out to be 0.477. For the variant G35U G55C, the self-cleavage worked out at 0.409. Turning to G35C G40U, the self-cleavage was 0.145. The same measure for G35C G67A: 0.148; for C36A G54A: 0.0804; for C36A G54U: 0.229. G35U C61G: the self-cleavage came to 0.286. Next, G35U C61U: 0.554; G35C C64A: 0.113. In the case of G35U C44U, the self-cleavage was 0.193. With G34C G50U, the self-cleavage amounted to 0.175. The same measure for G35U C63G: 0.262. On to G35U C63U, for which the self-cleavage worked out at 0.513.

With G35C G76U, the self-cleavage stood at 0.465. In the case of G35U A42C, the self-cleavage stood at 0.115. In the case of G35A U79C, the self-cleavage stood at 0.282. For the variant G35A G53A, the self-cleavage stood at 0.411. With G34A C57U, the self-cleavage amounted to 0.332.

Take G34A U37C: the self-cleavage was found to be 0.102. The same measure for G34A U37A: 0.0554.

Take C33U G50C: the self-cleavage turned out to be 0.786. The same measure for C33U G50A: 0.774. Next, C33U G53U: 0.916; G34A C36A: 0.0978. Next, G35U A77G: 0.305; C36G A83G: 0.151.

With C36G A83C, the self-cleavage turned out to be 0.0831.

For C33U G40U, the self-cleavage came to 0.78.

On to C36A A77G, for which the self-cleavage was found to be 0.0791. The same measure for G35U C41U: 0.63; for G34A C66A: 0.286. The same measure for G34A C66U: 0.0665; for G34A U65C: 0.141. Next, G34A U65A: 0.0692. Regarding G34A U65G, the self-cleavage came out at 0.178. As for G34U C66A, the self-cleavage is 0.0712. The same measure for G34U C66G: 0.164. Next, G35A U69A: 0.571; G34A G59U: 0.266.

Turning to G34A G59A, the self-cleavage came to 0.214. On to G34A G59C, for which the self-cleavage stood at 0.225. C36A C84G: the self-cleavage is 0.208.

As to C33U G68U, the self-cleavage stood at 0.678. As to C33U G68C, the self-cleavage is 0.789. Next, G34A U60C: 0.258; G34C A56G: 0.142. The same measure for G34C A56C: 0.237; for G34A C58U: 0.122. Consider G34A C58G, for which the self-cleavage is 0.177. Regarding G35U G53A, the self-cleavage is 0.42. The same measure for G35U G53C: 0.478; for C36G C66U: 0.0997; for G34C U79C: 0.227. Next, G34A G82A: 0.0671. The same measure for G34A G82U: 0.129. In the case of C36A U79C, the self-cleavage was 0.086.

As for G35A G54C, the self-cleavage was 0.69. On to G35U U65G, for which the self-cleavage amounted to 0.424. Consider G35U U65A, for which the self-cleavage stood at 0.35. With G35A A43C, the self-cleavage amounted to 0.0272. As to G35C C75G, the self-cleavage was determined as 0.391.

On to G35A C84G, for which the self-cleavage is 0.45. Next, G35C A71U: 0.128; G35C A71G: 0.262; G34U G40U: 0.0882. The same measure for G34A C84A: 0.126; for G34C A70U: 0.0378; for C36G G82A: 0.07. The same measure for C36G G82U: 0.142; for G34A C63A: 0.231; for G34A U72A: 0.17.

For G35C C57A, the self-cleavage amounted to 0.302. With G35C C57G, the self-cleavage is 0.201.

Take G35A C57G: the self-cleavage stood at 0.684. The same measure for G35C C48A: 0.269; for G35A A87U: 0.391; for G34A C49G: 0.155. Turning to G35C U46A, the self-cleavage was determined as 0.101. The same measure for G35A U72C: 0.283; for G34A G74C: 0.102; for C36G A43U: 0.0755.

The values are drawn from the RNAGym collection of RNA variant scans (doi:10.7554/elife.80360).
